This note sets out measurements from US20040005688A1.

In assay [1] the target is Dvl3, mouse homolog of Dsh, C-terminally tagged, expressed from pcDNA3.1 in NIH3T3 cells (mouse) (UniProt Q61062). In words: cell-based or functional assay.
In assay [2] the target is Dsh, C-terminally tagged, expressed from pcDNA3.1 in NIH3T3 cells (Drosophila) (UniProt P51140). Kind of assay: cell-based or functional assay.
Dsh, C-terminally tagged, expressed from pcDNA3.1 in NIH3T3 cells (Drosophila), sequence (P51140 whole entry D276N): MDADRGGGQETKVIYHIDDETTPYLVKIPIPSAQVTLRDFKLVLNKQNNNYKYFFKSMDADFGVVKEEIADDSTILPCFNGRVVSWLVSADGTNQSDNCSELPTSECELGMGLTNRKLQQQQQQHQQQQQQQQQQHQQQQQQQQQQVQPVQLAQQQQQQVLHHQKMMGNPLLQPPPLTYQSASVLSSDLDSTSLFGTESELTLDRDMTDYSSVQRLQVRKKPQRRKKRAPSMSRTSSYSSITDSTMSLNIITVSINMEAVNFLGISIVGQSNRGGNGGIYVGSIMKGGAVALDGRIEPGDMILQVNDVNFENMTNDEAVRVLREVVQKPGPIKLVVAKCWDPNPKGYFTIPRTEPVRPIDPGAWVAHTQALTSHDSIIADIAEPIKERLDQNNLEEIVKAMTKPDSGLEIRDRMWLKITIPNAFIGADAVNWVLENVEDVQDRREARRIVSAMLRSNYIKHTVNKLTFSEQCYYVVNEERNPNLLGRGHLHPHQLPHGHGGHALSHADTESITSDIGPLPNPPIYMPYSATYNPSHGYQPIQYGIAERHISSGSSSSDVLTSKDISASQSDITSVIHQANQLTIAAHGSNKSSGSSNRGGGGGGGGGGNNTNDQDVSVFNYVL

Dvl3, mouse homolog of Dsh, C-terminally tagged, expressed from pcDNA3.1 in NIH3T3 cells (mouse), sequence (Q61062 whole entry): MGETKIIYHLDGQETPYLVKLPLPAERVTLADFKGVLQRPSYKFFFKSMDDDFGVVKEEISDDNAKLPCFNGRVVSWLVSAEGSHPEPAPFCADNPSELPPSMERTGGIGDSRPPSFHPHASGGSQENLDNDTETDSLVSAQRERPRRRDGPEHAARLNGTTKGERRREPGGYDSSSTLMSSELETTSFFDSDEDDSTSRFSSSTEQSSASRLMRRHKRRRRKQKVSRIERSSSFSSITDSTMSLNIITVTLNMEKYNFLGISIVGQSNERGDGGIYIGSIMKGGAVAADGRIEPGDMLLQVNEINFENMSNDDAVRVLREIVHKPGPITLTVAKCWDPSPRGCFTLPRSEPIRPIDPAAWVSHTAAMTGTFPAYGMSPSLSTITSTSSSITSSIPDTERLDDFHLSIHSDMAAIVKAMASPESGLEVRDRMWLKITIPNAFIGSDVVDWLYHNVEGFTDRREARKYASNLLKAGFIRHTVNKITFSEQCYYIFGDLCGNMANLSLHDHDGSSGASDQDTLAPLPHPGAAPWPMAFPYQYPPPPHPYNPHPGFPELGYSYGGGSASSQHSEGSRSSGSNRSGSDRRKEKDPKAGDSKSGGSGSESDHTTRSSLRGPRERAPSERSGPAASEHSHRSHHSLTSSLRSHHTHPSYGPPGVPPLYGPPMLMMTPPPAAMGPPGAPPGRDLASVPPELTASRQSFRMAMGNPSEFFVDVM

Consider “DAKa, wild type, C-terminally tagged, expressed from pcDNA3.1 in NIH3T3 cells (enzyme)”, for which the activation of the LEF1 reporter (luciferase, NIH3T3 cells) in assay [1] stood at 95 fold; in assay [2], 10 fold.
